Key:
c-Src SH2 = assay: SH2 binding enrichment of the phosphorylated peptide, bacterial display (enrichment ratio); higher = better substrate or ligand; peptides without Tyr show the background
Grb2 SH2 = Grb2 SH2 (UniProt P62993); assay: as above
SHP2-C SH2 = assay: as above
Fyn = Fyn (UniProt P06241); assay: phosphorylation enrichment, bacterial display (enrichment ratio); higher = better substrate or ligand; peptides without Tyr show the background
AncSZ = assay: as above
Fer (mouse) = assay: as above
MERTK = MERTK (UniProt Q12866); assay: as above
c-Abl (mouse) = assay: as above
Fes = Fes (UniProt P07332); assay: as above
EPHB1 = EPHB1 (UniProt P54762); assay: as above
Chain of EPHB1 (P54762 whole entry, looked up): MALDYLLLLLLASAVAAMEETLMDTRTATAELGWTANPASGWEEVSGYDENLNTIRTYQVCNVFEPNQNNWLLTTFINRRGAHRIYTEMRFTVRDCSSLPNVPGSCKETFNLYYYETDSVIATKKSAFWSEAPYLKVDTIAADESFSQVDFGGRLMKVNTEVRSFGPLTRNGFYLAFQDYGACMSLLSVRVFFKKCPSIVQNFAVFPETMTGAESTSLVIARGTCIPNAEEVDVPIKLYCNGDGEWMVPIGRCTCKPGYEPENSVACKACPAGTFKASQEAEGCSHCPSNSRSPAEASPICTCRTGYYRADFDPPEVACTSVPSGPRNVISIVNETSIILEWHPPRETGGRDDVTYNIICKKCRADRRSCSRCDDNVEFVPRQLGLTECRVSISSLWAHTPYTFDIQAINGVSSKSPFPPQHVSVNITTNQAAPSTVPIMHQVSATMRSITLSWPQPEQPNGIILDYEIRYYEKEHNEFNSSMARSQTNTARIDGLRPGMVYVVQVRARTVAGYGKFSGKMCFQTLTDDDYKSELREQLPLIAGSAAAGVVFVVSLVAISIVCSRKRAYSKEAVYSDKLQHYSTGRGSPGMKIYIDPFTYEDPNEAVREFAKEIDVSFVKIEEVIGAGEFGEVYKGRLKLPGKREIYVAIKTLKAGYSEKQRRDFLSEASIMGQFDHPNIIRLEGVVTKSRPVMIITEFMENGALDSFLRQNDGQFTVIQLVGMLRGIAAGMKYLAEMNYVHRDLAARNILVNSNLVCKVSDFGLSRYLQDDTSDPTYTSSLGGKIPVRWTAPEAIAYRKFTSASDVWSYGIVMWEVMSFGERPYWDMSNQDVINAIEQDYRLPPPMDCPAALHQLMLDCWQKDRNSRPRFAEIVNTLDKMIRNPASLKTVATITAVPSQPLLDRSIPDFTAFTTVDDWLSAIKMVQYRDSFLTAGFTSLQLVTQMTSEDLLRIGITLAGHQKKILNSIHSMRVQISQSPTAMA

Hck = Hck (UniProt P08631); assay: as above
Chain of Hck (P08631 whole entry, looked up): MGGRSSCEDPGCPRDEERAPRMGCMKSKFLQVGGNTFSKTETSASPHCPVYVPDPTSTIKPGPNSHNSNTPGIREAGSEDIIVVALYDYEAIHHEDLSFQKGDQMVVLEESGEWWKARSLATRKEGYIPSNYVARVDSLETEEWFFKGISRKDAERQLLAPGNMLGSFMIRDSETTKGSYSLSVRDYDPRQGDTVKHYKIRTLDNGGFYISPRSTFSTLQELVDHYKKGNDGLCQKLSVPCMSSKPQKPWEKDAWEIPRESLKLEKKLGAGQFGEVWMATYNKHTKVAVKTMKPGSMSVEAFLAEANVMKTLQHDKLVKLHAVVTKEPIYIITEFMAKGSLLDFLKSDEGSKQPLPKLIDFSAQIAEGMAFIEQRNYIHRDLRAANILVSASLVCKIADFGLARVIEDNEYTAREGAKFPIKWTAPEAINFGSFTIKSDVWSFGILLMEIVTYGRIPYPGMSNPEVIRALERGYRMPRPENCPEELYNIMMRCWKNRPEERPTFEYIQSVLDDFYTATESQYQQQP

Jak2 = Jak2 (UniProt O60674); assay: as above
FGFR1 = FGFR1 (UniProt P11362); assay: as above
Chain of FGFR1 (P11362 whole entry, looked up): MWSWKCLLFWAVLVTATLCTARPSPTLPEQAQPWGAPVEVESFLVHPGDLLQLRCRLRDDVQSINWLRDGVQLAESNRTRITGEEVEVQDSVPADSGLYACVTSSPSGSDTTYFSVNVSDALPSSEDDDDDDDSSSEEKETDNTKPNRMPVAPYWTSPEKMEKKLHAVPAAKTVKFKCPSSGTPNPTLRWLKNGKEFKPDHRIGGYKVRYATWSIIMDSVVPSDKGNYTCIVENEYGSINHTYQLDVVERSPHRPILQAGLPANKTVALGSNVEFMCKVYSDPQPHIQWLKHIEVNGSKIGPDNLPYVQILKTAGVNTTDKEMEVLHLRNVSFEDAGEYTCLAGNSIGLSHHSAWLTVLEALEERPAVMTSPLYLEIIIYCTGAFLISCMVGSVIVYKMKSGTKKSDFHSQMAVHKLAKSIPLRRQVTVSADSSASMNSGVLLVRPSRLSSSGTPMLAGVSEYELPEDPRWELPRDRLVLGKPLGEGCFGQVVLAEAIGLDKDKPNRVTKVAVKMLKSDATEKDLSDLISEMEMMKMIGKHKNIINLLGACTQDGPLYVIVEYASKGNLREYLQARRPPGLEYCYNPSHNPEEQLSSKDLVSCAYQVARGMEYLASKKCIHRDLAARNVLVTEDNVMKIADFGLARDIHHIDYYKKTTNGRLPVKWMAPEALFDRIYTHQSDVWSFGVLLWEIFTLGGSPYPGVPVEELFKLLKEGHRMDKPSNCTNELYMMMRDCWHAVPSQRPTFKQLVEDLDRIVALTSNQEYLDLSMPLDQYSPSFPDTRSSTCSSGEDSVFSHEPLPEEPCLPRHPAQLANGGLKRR

c-Src = assay: as above
FGFR3 = FGFR3 (UniProt P22607); assay: as above
Chain of FGFR3 (P22607 whole entry, looked up): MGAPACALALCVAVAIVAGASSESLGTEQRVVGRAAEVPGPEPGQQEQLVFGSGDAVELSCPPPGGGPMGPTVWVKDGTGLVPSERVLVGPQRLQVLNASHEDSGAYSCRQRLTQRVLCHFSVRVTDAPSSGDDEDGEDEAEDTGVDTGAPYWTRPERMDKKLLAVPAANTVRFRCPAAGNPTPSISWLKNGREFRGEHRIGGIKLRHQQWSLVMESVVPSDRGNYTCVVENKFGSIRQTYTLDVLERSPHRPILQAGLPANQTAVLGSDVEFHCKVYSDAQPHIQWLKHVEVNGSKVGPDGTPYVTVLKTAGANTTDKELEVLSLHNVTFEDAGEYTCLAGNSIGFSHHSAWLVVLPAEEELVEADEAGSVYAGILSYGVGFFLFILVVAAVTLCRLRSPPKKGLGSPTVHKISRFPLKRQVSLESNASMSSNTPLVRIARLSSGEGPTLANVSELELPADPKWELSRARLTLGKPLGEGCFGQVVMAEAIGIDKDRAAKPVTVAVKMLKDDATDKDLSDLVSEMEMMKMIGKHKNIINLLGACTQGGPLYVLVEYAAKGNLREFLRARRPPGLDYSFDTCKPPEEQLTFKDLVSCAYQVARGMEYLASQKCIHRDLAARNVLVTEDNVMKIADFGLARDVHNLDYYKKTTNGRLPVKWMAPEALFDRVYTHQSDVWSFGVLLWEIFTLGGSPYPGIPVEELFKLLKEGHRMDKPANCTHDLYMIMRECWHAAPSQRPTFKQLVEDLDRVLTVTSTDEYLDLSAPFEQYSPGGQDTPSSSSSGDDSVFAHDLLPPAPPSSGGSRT

EPHB2 = EPHB2 (UniProt P29323); assay: as above
Chain of EPHB2 (P29323 whole entry, looked up, the tested form may be a part): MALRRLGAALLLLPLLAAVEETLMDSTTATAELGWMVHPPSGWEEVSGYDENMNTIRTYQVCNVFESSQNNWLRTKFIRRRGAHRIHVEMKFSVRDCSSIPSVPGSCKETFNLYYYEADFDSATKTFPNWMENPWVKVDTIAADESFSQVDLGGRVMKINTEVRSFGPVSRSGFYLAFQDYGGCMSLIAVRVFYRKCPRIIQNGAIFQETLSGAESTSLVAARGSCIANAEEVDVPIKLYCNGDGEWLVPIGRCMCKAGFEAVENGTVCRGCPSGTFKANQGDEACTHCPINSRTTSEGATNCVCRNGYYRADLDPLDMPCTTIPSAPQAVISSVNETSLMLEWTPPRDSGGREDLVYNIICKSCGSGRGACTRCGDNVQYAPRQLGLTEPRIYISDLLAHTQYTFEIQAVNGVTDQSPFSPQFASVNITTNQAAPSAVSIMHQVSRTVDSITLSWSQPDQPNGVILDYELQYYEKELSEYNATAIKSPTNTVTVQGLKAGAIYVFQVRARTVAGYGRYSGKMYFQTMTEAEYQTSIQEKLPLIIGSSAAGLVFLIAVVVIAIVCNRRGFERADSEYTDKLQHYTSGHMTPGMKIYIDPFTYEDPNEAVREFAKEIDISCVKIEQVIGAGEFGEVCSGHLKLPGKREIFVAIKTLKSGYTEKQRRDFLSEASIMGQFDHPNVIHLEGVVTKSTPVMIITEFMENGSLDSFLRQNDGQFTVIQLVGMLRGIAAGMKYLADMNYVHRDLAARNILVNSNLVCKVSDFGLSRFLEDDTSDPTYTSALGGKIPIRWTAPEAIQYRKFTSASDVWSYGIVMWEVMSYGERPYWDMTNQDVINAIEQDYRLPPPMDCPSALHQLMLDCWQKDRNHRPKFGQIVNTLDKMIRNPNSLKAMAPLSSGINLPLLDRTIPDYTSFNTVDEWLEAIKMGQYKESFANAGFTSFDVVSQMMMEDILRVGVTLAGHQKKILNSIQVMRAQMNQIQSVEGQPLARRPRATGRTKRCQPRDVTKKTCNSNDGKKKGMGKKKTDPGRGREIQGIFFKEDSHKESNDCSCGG
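For SH2 binding enrichment of the phosphorylated peptide, bacterial display in this document: peptide library displayed on the E. coli surface as eCPX fusions, selected cells deep-sequenced, score is each peptide's frequency after selection divided by its frequency in the input.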
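For phosphorylation enrichment, bacterial display in this document: 11-residue human phosphosite peptides and single-mutation variants displayed on the E. coli surface, counted by deep sequencing, each peptide's frequency after selection divided by its frequency in the unselected input library; frequency after pTyr selection over input frequency; kinase dosed for 20-30% of maximal phosphorylation in three min.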

Chain of Fyn (P06241 whole entry, looked up): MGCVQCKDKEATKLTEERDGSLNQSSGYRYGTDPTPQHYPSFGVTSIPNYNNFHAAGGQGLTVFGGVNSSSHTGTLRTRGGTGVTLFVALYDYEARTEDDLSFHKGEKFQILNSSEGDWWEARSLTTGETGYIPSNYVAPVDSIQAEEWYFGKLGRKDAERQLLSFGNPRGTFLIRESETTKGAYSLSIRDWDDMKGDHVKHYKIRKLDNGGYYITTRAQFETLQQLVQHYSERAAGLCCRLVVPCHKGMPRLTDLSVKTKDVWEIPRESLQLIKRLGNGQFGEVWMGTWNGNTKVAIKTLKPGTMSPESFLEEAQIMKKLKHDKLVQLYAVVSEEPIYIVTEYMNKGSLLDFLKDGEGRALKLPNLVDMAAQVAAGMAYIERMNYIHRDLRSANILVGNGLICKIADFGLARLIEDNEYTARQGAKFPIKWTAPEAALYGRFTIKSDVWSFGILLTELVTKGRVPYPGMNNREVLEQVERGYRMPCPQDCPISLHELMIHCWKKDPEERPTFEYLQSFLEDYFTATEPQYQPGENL
Chain of Grb2 SH2 (P62993 whole entry, looked up): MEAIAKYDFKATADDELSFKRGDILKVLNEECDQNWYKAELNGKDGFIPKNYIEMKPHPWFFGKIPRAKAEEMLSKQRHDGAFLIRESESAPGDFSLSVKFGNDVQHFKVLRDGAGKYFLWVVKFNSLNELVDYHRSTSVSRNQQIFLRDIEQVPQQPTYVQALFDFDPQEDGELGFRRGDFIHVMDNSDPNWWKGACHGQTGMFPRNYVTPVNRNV

| Sequence | SH2 binding enrichment (c-Src SH2) | SH2 binding enrichment (Grb2 SH2) | SH2 binding enrichment (SHP2-C SH2) | phosphorylation enrichment (Fyn) | phosphorylation enrichment (AncSZ) | phosphorylation enrichment (Fer (mouse)) | phosphorylation enrichment (MERTK) | phosphorylation enrichment (c-Abl (mouse)) | phosphorylation enrichment (Fes) | phosphorylation enrichment (EPHB1) | phosphorylation enrichment (Hck) | phosphorylation enrichment (Jak2) | phosphorylation enrichment (FGFR1) | phosphorylation enrichment (c-Src) | phosphorylation enrichment (FGFR3) | phosphorylation enrichment (EPHB2) |
| --- | --- | --- | --- | --- | --- | --- | --- | --- | --- | --- | --- | --- | --- | --- | --- | --- |
| CEHRGCLFLAI [TEK_Y897_Y897C_YF] | 0.751 | 0.934 | 0.974 | 0.334 | 1.02 | 0.421 | 0.298 | 0.601 | 1.13 | 0.554 | 0.38 | 0.797 | 0.455 | 0.282 | 0.624 | 0.468 |
| VYLGAYDCFLP [SLC22A5_Y486_R488C] | 0.992 | 1.1 | 1.36 | 7.34 | 2.18 | 7.23 | 7.36 | 1.77 | 1.41 | 5.46 | 5.14 | 1.28 | 1.15 | 6.4 | 1.09 | 8.08 |
| LARNMYDKEFF [MET_Y1230_D1228N_YF] | 0.541 | 0.427 | 0.739 | 0.529 | 1.03 | 0.541 | 0.578 | 0.793 | 1.01 | 0.706 | 0.694 | 1 | 0.602 | 0.626 | 0.62 | 0.592 |
| IGMLIYFARKA [VCAM1_Y718_I716L] | 0.993 | 1.43 | 1.23 | 0.453 | 0.934 | 0.425 | 0.496 | 0.508 | 0.846 | 0.518 | 0.536 | 0.703 | 0.461 | 0.424 | 0.456 | 0.481 |
| TLEKYYFAFPG [SLC1A1_Y51_F50Y] | 0.614 | 1.06 | 0.954 | 4.5 | 1.75 | 0.632 | 11.5 | 9.74 | 1.09 | 7.36 | 3.38 | 8.54 | 14.6 | 6.16 | 12 | 11.1 |
| IALSKYGRVKR [FGF6_Y186] | 0.501 | 0.711 | 0.447 | 0.358 | 0.61 | 0.372 | 0.438 | 0.552 | 0.564 | 0.32 | 0.412 | 0.57 | 0.359 | 0.463 | 0.373 | 0.424 |
| ERRLIYASDPK [VPS13D_Y864_T865A] | 0.625 | 0.837 | 0.589 | 0.418 | 0.634 | 0.395 | 0.45 | 0.545 | 0.678 | 0.443 | 0.473 | 0.506 | 0.46 | 0.475 | 0.479 | 0.391 |
| IFHLSYHHNCE [PDE6B_Y227_L228H_YF] | 0.873 | 1.14 | 1.16 | 0.522 | 1.15 | 0.517 | 0.381 | 0.588 | 1.18 | 0.567 | 0.478 | 0.831 | 0.499 | 0.455 | 0.694 | 0.635 |
| FRSSLYSLMET [MYO5C_Y633_L634S] | 1.24 | 0.672 | 0.564 | 4.25 | 1.12 | 9.51 | 12.4 | 0.629 | 1.16 | 4.17 | 4.03 | 0.77 | 0.898 | 4.03 | 0.947 | 1.84 |
| NTVLGYFIGCI [GARS1_Y408_R412C] | 0.438 | 0.906 | 0.514 | 0.491 | 1.19 | 0.598 | 0.381 | 0.826 | 1.31 | 0.653 | 0.467 | 1.18 | 0.457 | 0.465 | 0.828 | 0.63 |
| HVLEEYKPKQG [SAXO2_Y37_P34L] | 0.47 | 0.762 | 0.938 | 1.19 | 0.5 | 0.552 | 0.57 | 0.698 | 0.834 | 0.487 | 0.646 | 1.36 | 0.656 | 0.424 | 1.39 | 0.683 |
| NTGDDYDLFGG [PTPN11_Y63_Y62D_YF] | 0.376 | 0.666 | 0.439 | 0.722 | 1.42 | 0.623 | 0.412 | 0.826 | 1.21 | 0.586 | 0.618 | 1.05 | 0.546 | 1.02 | 0.652 | 0.608 |
| KYLENYLNCLL [PLD2_Y169_R172C] | 0.747 | 0.983 | 0.835 | 0.476 | 1.1 | 0.707 | 0.52 | 1.03 | 1.47 | 1.18 | 0.456 | 1.28 | 0.989 | 0.498 | 1.05 | 0.776 |
| KLPDAYERFIL [G6PD_Y437_L440F] | 1.1 | 0.933 | 0.801 | 0.578 | 0.985 | 1.22 | 0.538 | 0.745 | 1.06 | 0.568 | 0.569 | 0.892 | 0.476 | 0.713 | 0.661 | 0.562 |

Reference: the supplement of paper PMC10065799, “High-throughput profiling of sequence recognition by tyrosine kinases and SH2 domains using bacterial peptide display” (eLife, 2023)
